PMC3085965 (Archives of biochemistry and biophysics, 2011)

Biological target: Thrombospondin-1 (human, purified from platelets) (human, UniProt P07996 19-1170, 125I label (where used as 125I-TSP1))
Experiment: radioligand binding

Thrombospondin-1 (human, purified from platelets), sequence (P07996 19-1170): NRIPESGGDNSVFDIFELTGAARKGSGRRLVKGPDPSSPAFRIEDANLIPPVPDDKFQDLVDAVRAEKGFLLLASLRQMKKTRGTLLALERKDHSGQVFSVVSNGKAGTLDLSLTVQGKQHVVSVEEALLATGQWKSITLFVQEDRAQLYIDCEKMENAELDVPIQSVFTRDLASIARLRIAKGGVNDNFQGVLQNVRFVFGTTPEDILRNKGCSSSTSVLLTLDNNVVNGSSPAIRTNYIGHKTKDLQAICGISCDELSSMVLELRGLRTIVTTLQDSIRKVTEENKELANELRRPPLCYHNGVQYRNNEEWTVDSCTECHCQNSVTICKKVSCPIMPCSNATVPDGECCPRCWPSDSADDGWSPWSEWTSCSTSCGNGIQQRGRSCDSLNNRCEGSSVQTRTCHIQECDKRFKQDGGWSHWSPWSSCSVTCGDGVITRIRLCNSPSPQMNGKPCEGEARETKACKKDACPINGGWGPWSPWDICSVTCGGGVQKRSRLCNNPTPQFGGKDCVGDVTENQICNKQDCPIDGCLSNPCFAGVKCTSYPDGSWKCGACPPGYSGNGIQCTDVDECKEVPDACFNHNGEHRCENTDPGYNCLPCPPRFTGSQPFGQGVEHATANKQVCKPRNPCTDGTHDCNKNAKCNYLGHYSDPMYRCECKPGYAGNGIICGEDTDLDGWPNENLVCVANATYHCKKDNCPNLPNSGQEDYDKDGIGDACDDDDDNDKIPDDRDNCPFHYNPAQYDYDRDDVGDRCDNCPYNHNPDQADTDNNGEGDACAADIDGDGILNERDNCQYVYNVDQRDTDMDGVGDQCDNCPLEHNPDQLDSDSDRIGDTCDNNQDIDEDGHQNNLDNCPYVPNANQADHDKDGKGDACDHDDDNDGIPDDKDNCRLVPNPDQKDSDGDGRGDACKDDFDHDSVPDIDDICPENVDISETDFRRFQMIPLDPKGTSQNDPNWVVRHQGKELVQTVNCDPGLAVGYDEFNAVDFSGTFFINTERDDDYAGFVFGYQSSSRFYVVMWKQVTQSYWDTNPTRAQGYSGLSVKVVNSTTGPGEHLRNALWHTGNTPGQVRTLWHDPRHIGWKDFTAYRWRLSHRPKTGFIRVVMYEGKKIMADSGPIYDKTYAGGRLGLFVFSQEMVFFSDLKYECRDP

B1: full-length recombinant human sFRP-2 (natural protein, UniProt Q96HF1 25-295, looked up)
chain: LFLFGQPDFSYKRSNCKPIPANLQLCHGIEYQNMRLPNLLGHETMKEVLEQAGAWIPLVMKQCHPDTKKFLCSLFAPVCLDDLDETIQPCHSLCVQVKDRCAPVMSAFGFPWPDMLECDRFPQDNDLCIPLASSDHLLPATEEAPKVCEACKNKNDDDNDIMETLCKNDFALKIKVKEITYINRDTKIILETKSKTIYKLNGVSERDLKKSVLWLKDSLQCTCEEMNDINAPYLVMGQKQGGELVITSVKRWQKGQREFKRISRSIRKLQC
  Kd: 0.095 µM

B2: full-length recombinant human sFRP-1 (natural protein, UniProt Q8N474 32-314, looked up)
chain: SEYDYVSFQSDIGPYQSGRFYTKPPQCVDIPADLRLCHNVGYKKMVLPNLLEHETMAEVKQQASSWVPLLNKNCHAGTQVFLCSLFAPVCLDRPIYPCRWLCEAVRDSCEPVMQFFGFYWPEMLKCDKFPEGDVCIAMTPPNATEASKPQGTTVCPPCDNELKSEAIIEHLCASEFALRMKIKEVKKENGDKKIVPKKKKPLKLGPIKKKDLKKLVLYLKNGADCPCHQLDNLSHHFLIMGRKVKSQYLLTAIHKWDKKNKEFKNFMKKMKNHECPTFQSVFK
  Kd: 0.048 µM
